# Test results published in publication PMC5635807, “Identification of Trombospondin-1 as a Novel Amelogenin Interactor by Functional Proteomics” (Frontiers in Chemistry, 2017).
# Molecular target: T1, Thrombospondin-1 (Abnova) (UniProt P07996 19-1170)
# T1 construct: Thrombospondin-1 bought from Abnova; No catalogue number is printed; the product may be a partial or tagged recombinant protein; also called TSP-1; free TSP-1; source: bought: Abnova
# Experiment: SPR; Biacore 3000; AMEL-2 immobilised on a CM5 chip by amine coupling (10,000 RU); running buffer 10 mM Na2HPO4, 150 mM NaCl, pH 7.4; analytes injected at 10 μl/min for 3 min, dissociation 600 s, no regeneration; 1:1 Langmuir model
# Settings: both partners purified
# T1 sequence (P07996 19-1170): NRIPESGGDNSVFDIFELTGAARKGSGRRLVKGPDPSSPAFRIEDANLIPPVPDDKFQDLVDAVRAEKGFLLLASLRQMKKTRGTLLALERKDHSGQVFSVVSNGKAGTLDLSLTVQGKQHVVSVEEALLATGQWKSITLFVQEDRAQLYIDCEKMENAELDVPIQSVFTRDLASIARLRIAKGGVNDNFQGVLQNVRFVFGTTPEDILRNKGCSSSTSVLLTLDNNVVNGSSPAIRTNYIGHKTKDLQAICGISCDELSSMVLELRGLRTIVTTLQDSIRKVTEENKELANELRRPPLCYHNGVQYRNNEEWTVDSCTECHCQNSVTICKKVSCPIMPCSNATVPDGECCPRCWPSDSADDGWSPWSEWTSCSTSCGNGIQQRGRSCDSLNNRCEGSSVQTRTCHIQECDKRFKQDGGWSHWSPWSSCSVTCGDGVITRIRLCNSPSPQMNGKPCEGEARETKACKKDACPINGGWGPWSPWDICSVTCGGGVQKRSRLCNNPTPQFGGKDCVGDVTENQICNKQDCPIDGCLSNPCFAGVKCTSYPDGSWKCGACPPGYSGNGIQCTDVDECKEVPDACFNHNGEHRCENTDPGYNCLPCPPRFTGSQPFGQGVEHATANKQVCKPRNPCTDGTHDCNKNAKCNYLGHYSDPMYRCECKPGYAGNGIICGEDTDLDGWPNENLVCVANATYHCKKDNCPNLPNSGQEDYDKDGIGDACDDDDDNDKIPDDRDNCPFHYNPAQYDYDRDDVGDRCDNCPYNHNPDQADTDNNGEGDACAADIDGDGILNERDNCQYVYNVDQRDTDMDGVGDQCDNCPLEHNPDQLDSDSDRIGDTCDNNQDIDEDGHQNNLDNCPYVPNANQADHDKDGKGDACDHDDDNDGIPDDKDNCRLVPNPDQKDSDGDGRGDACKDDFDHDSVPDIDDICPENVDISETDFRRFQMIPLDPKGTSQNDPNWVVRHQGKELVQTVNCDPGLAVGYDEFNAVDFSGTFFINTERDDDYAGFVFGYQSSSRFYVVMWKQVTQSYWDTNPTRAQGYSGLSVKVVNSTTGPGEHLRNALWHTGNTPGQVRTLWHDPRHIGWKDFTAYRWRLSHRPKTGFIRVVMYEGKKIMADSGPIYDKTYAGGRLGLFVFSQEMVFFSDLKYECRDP
binder,measurement,value
"human amelogenin isoform 2 (AMELX isoform II), recombinant (natural protein) MGTWILFACLLGAAFAMPVLTPLKWYQSIRPPYPSYGYEPMGGWLHHQIIPVLSQQHPPTHTLQPHHHIPVVPAQQPVIPQQPMMPVPGQHSMTPIQHHQPNLPPPAQQPYQPQPVQPQPHQPMQPQPPVHPMQPLPPQPPLPPMFPMQPLPPMLPDLTLEAWPSTDKTKREEVD",Kd,878 ± 125 nM
